Among the data in article PMC3694296, “11β-Hydroxysteroid dehydrogenase type 1 contributes to the balance between 7-keto- and 7-hydroxy-oxysterols in vivo” (Biochemical Pharmacology, 2013) are Km, Vmax and Vmax/Km values, retold here.

Substrate in data set [1]: C[C@]12C[C@H](O)[C@H]3[C@@H](CCC4=CC(=O)CC[C@@]43C)[C@@H]1CC[C@@H]2C(=O)CO
Description: oxidation kinetics (Km) with recombinant enzyme, HPLC. The data set is classed as biochemical, Mus musculus. Conditions: NADP+.

Substrate in data set [2]: C[C@]12CC(=O)[C@H]3[C@@H](CCC4=CC(=O)CC[C@@]43C)[C@@H]1CC[C@@H]2C(=O)CO
Description: reduction kinetics (Km) with recombinant enzyme, HPLC. The data set is classed as biochemical, Mus musculus. As to conditions: NADPH.

B1: 11β-hydroxysteroid dehydrogenase type 1 (murine 11βHSD1, m11βHSD1) (Mus musculus) (protein)
chain: NEEFRPEMLQGKKVIVTGASKGIGREMAYHLSKMGAHVVLTARSEEGLQKVVSRCLELGAASAHYIAGTMEDMTFAEQFIVKAGKLMGGLDMLILNHITQTSLSLFHDDIHSVRRVMEVNFLSYVVMSTAALPMLKQSNGSIAVISSLAGKMTQPMIAPYSASKFALDGFFSTIRTELYITKVNVSITLCVLGLIDTETAMKEISGIINAQASPKEECALEIIKGTALRKSEVYYDKSPLTPILLGNPGRKIMEFFSLRYYNKDMFVSN
notes: truncated form of recombinant m11βHSD1 protein (N23Δ)
As a reminder, the Km is the substrate concentration at which the rate is half of its maximum. In the case of B1, in data set [1], the Michaelis-Menten constant (Km) worked out at 1.78 ± 0.56 µM, the Vmax was determined as 4.82 ± 0.65 pmol/µg/min and the Vmax/Km came to 2.7 L/ug/min x 10^-6. In addition, in data set [2], the Km worked out at 0.20 ± 0.25 µM, the Vmax is 8.56 ± 4.06 pmol/µg/min and the Vmax/Km was 42.8 L/ug/min x 10^-6.
